T1: NRS natively expressed in human cells (HeLa cell lysate) (human, UniProt O43776 1-548)
T1 construct: mature; Target of the western blot; also called human 세포에서 원래 발현된 NRS
T1 sequence (looked up): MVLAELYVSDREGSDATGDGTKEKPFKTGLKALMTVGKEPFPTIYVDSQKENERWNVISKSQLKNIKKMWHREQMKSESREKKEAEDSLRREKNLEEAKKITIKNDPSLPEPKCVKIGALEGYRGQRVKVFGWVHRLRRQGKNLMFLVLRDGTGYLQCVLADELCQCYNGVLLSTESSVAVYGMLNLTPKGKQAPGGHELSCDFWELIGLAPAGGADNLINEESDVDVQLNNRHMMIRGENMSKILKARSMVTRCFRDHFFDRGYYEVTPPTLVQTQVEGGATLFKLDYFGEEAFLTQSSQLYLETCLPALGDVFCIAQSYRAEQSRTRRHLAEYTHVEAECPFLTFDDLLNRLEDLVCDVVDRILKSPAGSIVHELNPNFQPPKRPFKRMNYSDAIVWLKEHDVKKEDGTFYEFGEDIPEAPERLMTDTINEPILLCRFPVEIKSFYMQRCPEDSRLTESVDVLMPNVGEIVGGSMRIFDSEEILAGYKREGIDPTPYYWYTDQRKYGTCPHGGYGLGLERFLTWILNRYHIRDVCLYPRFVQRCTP


Molecular target: T1, NRS natively expressed in human cells …
Assay: western blot on HeLa cell lysate with periplasmic scFv (clones from phage panning on NRS), anti-HA-HRP detection

binding result | Binder
binds | SEQ ID NO 42 (scFv, It is probably the same molecule as one of Biocon-N1 to N5) scFv: EVQLLESGGGLVQPGGSLRLSCAASGFTFSNYSMSWVRQAPGKGLEWVSVISPGSGSKYYADSVKGRFTISRDNSKNTLYLQMNSLRAEDTAVYYCARTATIFDYWGQGTLVTVSSGGGGSGGGGSGGGGSQSVLTQPPSASGTPGQRVTISCTGSSSNIGSNYVSWYQQLPGTAPKLLIYADSQRPSGVPDRFSGSKSGTSASLAISGLRSEDEADYYCGTWDDSLSAYVFGGGTKLTVL
binds | SEQ ID NO 70 (scFv, It is probably the same molecule as one of Biocon-N1 to N5) scFv: EVQLLESGGGLVQTGGSLRLSCAASGFTFSDYAMSWVRQAPGKGLEWVSGISYSGGSTYYADSVKGRFTISRDNSKNTLYLQMNSLRAEDTAVYYCAKNSRHFDYWGQGTLVTVSSGGGGSGGGGSGGGGSQSVLTQPPSASGTPGQRVTISCSGSSSNIGSNDVTWYQQLPGTAPKLLIYSNSHRPSGVPDRFSGSKSGTSASLAISGLRSEDEADYYCGAWDDSLNGYVFGGGTKLTVL

Source: patent KR20150077887A (dated 2015)
